B1: mouse GITRL expressed on cells (ligand)
chain: MEEMPLRESSPQRAERCKKSWLLCIVALLLMLLCSLGTLIYTSLKPTAIESCMVKFELSSSKWHMTSPKPHCVNTTSDGKLKILQSGTYLIYGQVIPVDKKYIKDNAPFVVQIYKKNDVLQTLMNDFQILPIGGVYELHAGDNIYLKFNSKDHIQKNNTYWGIILMPDLPFIS
B2: mouse GITR (glucocorticoid-induced TNF receptor) (receptor, UniProt O35714 20-228, looked up)
chain: QPSVVEEPGCGPGKVQNGSGNNTRCCSLYAPGKEDCPKERCICVTPEYHCGDPQCKICKHYPCQPGQRVESQGDIVFGFRCVACAMGTFSAGRDGHCRLWTNCSQFGFLTMFPGNKTHNAVCIPEPLPTEQYGHLTVIFLVMAACIFFLTTVQLGLHIWQLRRQHMCPRETQPFAEVQLSAEDACSFQFPEEERGEQTEEKCHLGGRWP
notes: whole, on cells; endogenous on mouse T cells and HT-2 cells in the functional assays; also called cell-surface GITR

Columns and labels:
[1] = molecular target: mouse GITRL expressed on cells (mouse) (UniProt Q7TS55); assay: flow cytometry on GITRL-Cos cells, FITC donkey antihuman antibody
[2] = molecular target: B2; assay: cell-based or functional assay
[3] = molecular target: T1, control mouse IL-21 receptor fused to the FLAG epitope, expressed on Cos cells (mouse, UniProt Q9JHX3 20-529); assay: cell-cell binding by flow cytometry (PE anti-FLAG / FITC anti-GITR)
T1 construct: whole, on cells; also called IL-21R-Flag-Cos
T1 sequence (Q9JHX3 20-529): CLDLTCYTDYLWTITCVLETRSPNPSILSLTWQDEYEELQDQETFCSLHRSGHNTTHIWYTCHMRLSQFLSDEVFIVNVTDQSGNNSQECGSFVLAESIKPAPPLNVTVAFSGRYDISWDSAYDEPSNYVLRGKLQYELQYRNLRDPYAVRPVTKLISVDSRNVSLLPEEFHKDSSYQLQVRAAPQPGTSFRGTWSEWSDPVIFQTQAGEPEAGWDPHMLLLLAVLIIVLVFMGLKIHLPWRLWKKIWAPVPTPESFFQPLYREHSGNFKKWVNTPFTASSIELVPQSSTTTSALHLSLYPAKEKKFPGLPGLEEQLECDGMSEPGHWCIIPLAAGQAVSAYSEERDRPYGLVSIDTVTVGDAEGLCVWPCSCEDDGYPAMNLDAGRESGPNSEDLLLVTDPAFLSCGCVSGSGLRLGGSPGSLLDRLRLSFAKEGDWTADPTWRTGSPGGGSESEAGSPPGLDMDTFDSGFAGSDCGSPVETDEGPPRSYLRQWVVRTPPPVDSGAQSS
Description: Cell-cell interaction was detected by flow cytometry using phycoerythrin-labeled anti-Flag antibody (PE-FLAG) and fluorescein isothiocyanate (FITC)-labeled anti-GITR.

control human IgG (antibody)
FITC-Ab binding [1]: 7.9%

recombinant GITR fused to the Fc portion of human IgG (Fc fusion)
FITC-Ab binding [1]: 28.8% | fold increase in FITC-Ab binding compared to control HIgG [1]: 3.6 fold

B1
^3H-thymidine incorporation of CD4^+CD25^+ T cells, fold increase over unmodified YB2/0 cells (˜50,000 cells) [2]: ~15 fold

B2
binding result [3]: no binding
